Reference: US20090149339A1 (published 2009)
Ends that are not written are not given here. * marks the point of attachment. Biotin = O=C1N[C@H]2[C@H](CS[C@H]2CCCCC(=O)*)N1

Columns and labels:
[1] = biological target: T1, GST-KIAA0303 PDZ domain fusion protein (KIAA0303 AA652-742; PDZ domain 1 of 1) (UniProt P08515 1-218 = GST); experiment: A assay
T1 construct: also called K303

[2] = biological target: T2, GST-MPP1 PDZ domain fusion protein (55 Kd erythrocyte membrane protein AA101-186; PDZ domain 1 of 1) (UniProt P08515 1-218 = GST); experiment: A assay
T2 sequence (P08515 1-218, tags or fused parts left off): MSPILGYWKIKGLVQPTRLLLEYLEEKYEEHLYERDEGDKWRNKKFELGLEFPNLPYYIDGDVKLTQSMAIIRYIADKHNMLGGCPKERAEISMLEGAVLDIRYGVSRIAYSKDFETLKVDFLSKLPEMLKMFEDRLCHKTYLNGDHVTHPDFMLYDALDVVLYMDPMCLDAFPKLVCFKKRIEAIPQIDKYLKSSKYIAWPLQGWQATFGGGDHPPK

[3] = biological target: T3, GST-41.8 kD PDZ domain fusion protein (hypothetical 41.8 kD protein AA4-85; PDZ domain 1 of 1) (UniProt P08515 1-218 = GST); experiment: A assay
T3 construct: also called hypoth

[4] = biological target: T4, GST-TIAM1 PDZ domain fusion protein (T-lymphoma invasion and metastasis inducing protein 1 AA1001-1088); PDZ 1 … (UniProt P08515 1-218 = GST); experiment: A assay
T4 sequence (P08515 1-218, tags or fused parts left off): as above

[5] = biological target: T5, GST-NeDLG PDZ domain fusion protein (presynaptic protein sao102, neuroendocrine-dlg; PDZ domains 1-2 of 3) (UniProt P08515 1-218 = GST); experiment: A assay
T5 construct: also called NeDLG1
T5 sequence (P08515 1-218, tags or fused parts left off): as above

[6] = biological target: T6, GST-TAX40 PDZ domain fusion protein (human tax interaction protein 40 AA35-137; PDZ domain 1 of 1) (human, UniProt P08515 1-218 = GST); experiment: A/G assays
T6 construct: also called TX 40
T6 sequence (P08515 1-218, tags or fused parts left off): as above

[7] = biological target: T7, GST-KIAA0316 PDZ domain fusion protein (KIAA0316 AA197-284; PDZ domain 1 of 1) (UniProt P08515 1-218 = GST); experiment: A/G assays
T7 construct: also called K316
T7 sequence (P08515 1-218, tags or fused parts left off): as above

[8] = biological target: T8, GST-LIM PDZ domain fusion protein (Human LIM protein AA29-112; PDZ domain 1 of 1) (human, UniProt P08515 1-218 = GST); experiment: A/G assays
T8 sequence (P08515 1-218, tags or fused parts left off): as above

[9] = biological target: T9, GST-TAX2 PDZ domain fusion protein (human tax interaction protein 2 AA54-140; PDZ domain 1 of 1) (human, UniProt P08515 1-218 = GST); experiment: A/G assays
T9 construct: also called TX 2

[10] = biological target: T10, GST-AF6 PDZ domain fusion protein (af-6 protein AA985-1077; PDZ domain 1 of 1) (UniProt P08515 1-218 = GST); experiment: A/G assays
T10 sequence (P08515 1-218, tags or fused parts left off): as above

[11] = biological target: T11, GST-SYN1a PDZ domain fusion protein (alpha1-syntrophin AA96-189; PDZ domain 1 of 1) (UniProt P08515 1-218 = GST); experiment: A/G assays
T11 construct: also called SYN 1 alpha; SYNTR 1 alpha
T11 sequence (P08515 1-218, tags or fused parts left off): as above

[12] = biological target: T12, GST-PTN-4 PDZ domain fusion protein (protein-tyrosine phosphatase meg1 AA774-862; PDZ domain 1 of 1) (UniProt P08515 1-218 = GST); experiment: A/G assays
T12 sequence (P08515 1-218, tags or fused parts left off): as above

[13] = biological target: GST-DVL1 PDZ domain fusion protein (human dishevelled segment polarity protein homolog AA248-340); PDZ domain … (human, UniProt P08515 1-218 = GST); experiment: A/G assays
GST-DVL1 PDZ domain fusion protein (human dishevelled segment polarity protein homolog AA248-340); PDZ domain …, sequence (P08515 1-218, tags or fused parts left off): as above

[14] = biological target: T13, GST-CASK PDZ domain fusion protein (CASK AA495-584; PDZ domain 1 of 1) (mouse, UniProt P08515 1-218 = GST); experiment: A/G assays
T13 construct: also called mCASK

[15] = biological target: GST-LIMK2 PDZ domain fusion protein (human LIM domain kinase 2 AA185-275; PDZ domain 1 of 1) (human, UniProt P08515 1-218 = GST); experiment: A/G assays
GST-LIMK2 PDZ domain fusion protein (human LIM domain kinase 2 AA185-275; PDZ domain 1 of 1), sequence (P08515 1-218, tags or fused parts left off): as above

[16] = biological target: T14, GST-TAX43 PDZ domain fusion protein (human tax interaction protein 43 AA15-85; PDZ domain 1 of 1) (human, UniProt P08515 1-218 = GST); experiment: A/G assays
T14 construct: also called TX 43
T14 sequence (P08515 1-218, tags or fused parts left off): as above

[17] = biological target: GST-prIL16 PDZ domain fusion protein (putative interleukin 16 precursor AA170-383; PDZ domains 1-2 of 2) (UniProt P08515 1-218 = GST); experiment: A/G assays
GST-prIL16 PDZ domain fusion protein (putative interleukin 16 precursor AA170-383; PDZ domains 1-2 of 2), sequence (P08515 1-218, tags or fused parts left off): as above

[18] = biological target: GST-NOS1 PDZ domain fusion protein (human neuronal nitric oxide synthase; PDZ domain 1 of 1) (human, UniProt P08515 1-218 = GST); experiment: A/G assays
GST-NOS1 PDZ domain fusion protein (human neuronal nitric oxide synthase; PDZ domain 1 of 1), sequence (P08515 1-218, tags or fused parts left off): as above

[19] = biological target: T15, GST-RGS12 PDZ domain fusion protein (human regulator of G-protein signalling 12 AA35-103; PDZ domain 1 of 1) (human, UniProt P08515 1-218 = GST); experiment: A/G assays
T15 construct: also called RSG12

[20] = biological target: T16, GST-PSD95 PDZ domain fusion protein (human post-synaptic density protein 95 AA387-724; PDZ domains 1-3 of 3) (human, UniProt P08515 1-218 = GST); experiment: A/G assays
T16 sequence (P08515 1-218, tags or fused parts left off): as above

[21] = biological target: T17, GST-CBP PDZ domain fusion protein (Cytohesin binding protein HE AA85-175; PDZ domain 1 of 1) (UniProt P08515 1-218 = GST); experiment: A/G assays
T17 construct: also called Prot
T17 sequence (P08515 1-218, tags or fused parts left off): as above

[22] = biological target: GST-MINT3 PDZ domain fusion protein (human MINT3 AA11-52; PDZ domain 1 of 1) (human, UniProt P08515 1-218 = GST); experiment: A/G assays
GST-MINT3 PDZ domain fusion protein (human MINT3 AA11-52; PDZ domain 1 of 1), sequence (P08515 1-218, tags or fused parts left off): as above

[23] = biological target: T18, GST-KIAA0559 PDZ domain fusion protein (KIAA0559 AA766-870; PDZ1 of 1) (UniProt P08515 1-218 = GST); experiment: A/G assays
T18 construct: also called K559
T18 sequence (P08515 1-218, tags or fused parts left off): as above

[24] = biological target: T19, GST-MPP2 PDZ domain fusion protein (maguk p55 subfamily member 2 (DLG2) AA185-273; PDZ domain 1 of 1) (UniProt P08515 1-218 = GST); experiment: A/G assays
T19 construct: also called MMP2
T19 sequence (P08515 1-218, tags or fused parts left off): as above

[25] = biological target: T20, GST-TAX33 PDZ domain fusion protein (tax interaction protein 33 AA73-162; PDZ domain 1 of 1) (UniProt P08515 1-218 = GST); experiment: A/G assays
T20 construct: also called TX33
T20 sequence (P08515 1-218, tags or fused parts left off): as above

[26] = biological target: T12, GST-PTN-4 PDZ domain fusion protein …; experiment: G assay
[27] = biological target: T15, GST-RGS12 PDZ domain fusion protein …; experiment: G assay
[28] = biological target: T1, GST-KIAA0303 PDZ domain fusion protein …; experiment: A/G assays
[29] = biological target: T2, GST-MPP1 PDZ domain fusion protein (55 …); experiment: A/G assays
[30] = biological target: T3, GST-41.8 kD PDZ domain fusion protein …; experiment: A/G assays
[31] = biological target: T4, GST-TIAM1 PDZ domain fusion protein …; experiment: A/G assays
[32] = biological target: T5, GST-NeDLG PDZ domain fusion protein …; experiment: A/G assays
[33] = biological target: T8, GST-LIM PDZ domain fusion protein …; experiment: A assay
[34] = biological target: T10, GST-AF6 PDZ domain fusion protein (af-6 …); experiment: A assay
[35] = biological target: T15, GST-RGS12 PDZ domain fusion protein …; experiment: A assay
[36] = biological target: T19, GST-MPP2 PDZ domain fusion protein …; experiment: G assay
[37] = biological target: T16, GST-PSD95 PDZ domain fusion protein …; experiment: A and G assays

T1 sequence (P08515 1-218, tags or fused parts left off): as above

Biotin-ARKANMKGSYSLVEAQKSKV (also called CD106) [VCAM1 C-terminal PL peptide AA17L, biotinylated]: binds [1]; binds [2]; binds [3]. Biotin-ARKANMKGSYSLVEAQKSKV (also called CD106) [VCAM1 C-terminal PL peptide AA17L, biotinylated]: binds [4]; binds [5]; no binding [6]. Biotin-ARKANMKGSYSLVEAQKSKV (also called CD106) [VCAM1 C-terminal PL peptide AA17L, biotinylated]: no binding [7]; no binding [8]; no binding [9]. Biotin-ARKANMKGSYSLVEAQKSKV (also called CD106) [VCAM1 C-terminal PL peptide AA17L, biotinylated]: no binding [10]; no binding [11]; no binding [12]. Biotin-ARKANMKGSYSLVEAQKSKV (also called CD106) [VCAM1 C-terminal PL peptide AA17L, biotinylated]: no binding [13]; no binding [14]; no binding [15]. Biotin-ARKANMKGSYSLVEAQKSKV (also called CD106) [VCAM1 C-terminal PL peptide AA17L, biotinylated]: no binding [16]; no binding [17]; no binding [18]. Biotin-ARKANMKGSYSLVEAQKSKV (also called CD106) [VCAM1 C-terminal PL peptide AA17L, biotinylated]: no binding [19]; no binding [20]; no binding [21]. Biotin-ARKANMKGSYSLVEAQKSKV (also called CD106) [VCAM1 C-terminal PL peptide AA17L, biotinylated]: no binding [22]; no binding [23]; no binding [24]. Biotin-ARKANMKGSYSLVEAQKSKV (also called CD106) [VCAM1 C-terminal PL peptide AA17L, biotinylated]: no binding [25].

Biotin-EVICYIEKPGVETLEDSVF [CDW125 (IL5R) C-terminal PL peptide AA28L, biotinylated]: binds [26]; binds [27]; no binding [28]. Biotin-EVICYIEKPGVETLEDSVF [CDW125 (IL5R) C-terminal PL peptide AA28L, biotinylated]: no binding [6]; no binding [7]; no binding [8]. Biotin-EVICYIEKPGVETLEDSVF [CDW125 (IL5R) C-terminal PL peptide AA28L, biotinylated]: no binding [9]; no binding [10]; no binding [11]. Biotin-EVICYIEKPGVETLEDSVF [CDW125 (IL5R) C-terminal PL peptide AA28L, biotinylated]: no binding [29]; no binding [30]; no binding [31]. Biotin-EVICYIEKPGVETLEDSVF [CDW125 (IL5R) C-terminal PL peptide AA28L, biotinylated]: no binding [13]; no binding [14]; no binding [15]. Biotin-EVICYIEKPGVETLEDSVF [CDW125 (IL5R) C-terminal PL peptide AA28L, biotinylated]: no binding [16]; no binding [17]; no binding [18]. Biotin-EVICYIEKPGVETLEDSVF [CDW125 (IL5R) C-terminal PL peptide AA28L, biotinylated]: no binding [32]; no binding [20]; no binding [21]. Biotin-EVICYIEKPGVETLEDSVF [CDW125 (IL5R) C-terminal PL peptide AA28L, biotinylated]: no binding [22]; no binding [23]; no binding [24]. Biotin-EVICYIEKPGVETLEDSVF [CDW125 (IL5R) C-terminal PL peptide AA28L, biotinylated]: no binding [25].

Biotin-TREDIYVNYPTFSRRPKTRV [DNAM-1 C-terminal PL peptide AA22L, biotinylated]: binds [33]; binds [34]; binds [2]. Biotin-TREDIYVNYPTFSRRPKTRV [DNAM-1 C-terminal PL peptide AA22L, biotinylated]: binds [3]; binds [5]; binds [35]. Biotin-TREDIYVNYPTFSRRPKTRV [DNAM-1 C-terminal PL peptide AA22L, biotinylated]: binds [36]; binds [37]; no binding [28]. Biotin-TREDIYVNYPTFSRRPKTRV [DNAM-1 C-terminal PL peptide AA22L, biotinylated]: no binding [6]; no binding [7]; no binding [9]. Biotin-TREDIYVNYPTFSRRPKTRV [DNAM-1 C-terminal PL peptide AA22L, biotinylated]: no binding [11]; no binding [31]; no binding [12]. Biotin-TREDIYVNYPTFSRRPKTRV [DNAM-1 C-terminal PL peptide AA22L, biotinylated]: no binding [13]; no binding [14]; no binding [15]. Biotin-TREDIYVNYPTFSRRPKTRV [DNAM-1 C-terminal PL peptide AA22L, biotinylated]: no binding [16]; no binding [17]; no binding [18]. Biotin-TREDIYVNYPTFSRRPKTRV [DNAM-1 C-terminal PL peptide AA22L, biotinylated]: no binding [21]; no binding [22]; no binding [23]. Biotin-TREDIYVNYPTFSRRPKTRV [DNAM-1 C-terminal PL peptide AA22L, biotinylated]: no binding [25].
